Data as given in the nanobody polyreactivity screen of Harvey et al. (2022).

experiment: yeast display, Sf9 membrane polyspecificity reagent, FACS + sequencing; frameworks hold sequencing errors
How it was run: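 A synthetic nanobody library was expressed on Saccharomyces cerevisiae BJ5465 by galactose induction for 36–48 hours. The library was stained for 1 hour at 4 °C with 10% biotinylated, detergent-solubilized Sf9 membrane reagent and enriched with streptavidin microbeads before FACS. Low and high (top ~1%) gates were set on anti-HA fluorescence for expression and streptavidin fluorescence for reagent binding, and each polyreactivity label reflects the gate of origin.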

| Sequence | polyreactivity (PSR sort gate) |
| --- | --- |
| QVQLVETGRGLVQAGGSLRLSCAASGSTFGSYAMGWYRPAPGKEREFVATISRSGGRTYYAASVKGRFTISRDNAKNTVYFQMNSLKPEDTAVYYCATDRRYWIGYDYWGQGTQVTVSS | high polyreactivity |
| QVQLVESGGGLVQAGGSLRLSCAASGRIFAYNAMGWYRQAPGKERELVAAITWSGGITYYADSVKGRFTISRDNAKNTVYLQMNSLKPEDTAVYYCNVYVSAGEEDEYWGQGTQVTVSS | low polyreactivity |
| QVQLVESGGGLVQAGCNLRISCAASGSTFTLYAMGWYRQAPGKERELVAGITYSGGSTFYADSVKGRFTISRDNAKNTVYLQMKSVKPEDTAVYFCGDVYVPYYWLGRSRGLYYWGQGTQVTVSS | high polyreactivity |
| QVQLVESGGGLVQAGGSLRLSCAASGGIFPYYVMGWYRQAPGKERELVAAINSGGTTYYADSVKGRFTISRDNAKNTVYLQMNSLKPEDTAVYYCAAYYAGFGYNYWGQGTQVTVSS | low polyreactivity |
| QVQLVESGGGLVQSGGSLRLSCAASGNTFTFYAMGWYRQAPGKERELVAVISQIADGCTYYADSVKGRFTISRDNSKNSVYLQMNSLKPEDTAVYYCIAQTWDEYWGQGTQVTVSS | low polyreactivity |
| QVQLVESGGGLVQAGGSLRLSCAASGITFDDNAMAWYRQAPGKERELVATISDGGRTYYADSVKGRFTISRDNAKNTVFLQMNILKPEDTGVYYCAAGYPYYHVYGYGYWGQGTLVTVSS | low polyreactivity |
| QVQLVESGGGLVQAGGSLRLSCAASGRTFGINAMGWYRPAPGKERELVAAIRTGGSTYYADSVKGRFTISRDNAKNTVYLQMNSLKPEDTAVFYCAAVLYHNRKTEYTYGYWGQGTQVTVSS | high polyreactivity |
| QVQLVESGGGLVQAGGSLRLSCTASGSTYVAYAMGLYRQAPGKERELVAAITSSGGRTYYADSVKGRFTISRDNAKNTVYLQMNSLKPEDTAVYYCDAVTHGRYDWGQGTQVTVSS | high polyreactivity |
| QVQLVESGGGLVQAGGSLRLSCAASGFTLGRNAMGWYRQAPGKERELVASISGRGGSSYYADSVKGRFTISRDNAKNTVYLQMNSLKPEDTAVYYCAARGVSGKYYYWGQGTQVTVSS | high polyreactivity |
| QVQLVESGGGLVQAGGRLRLSCAASGFIFSYYAMAWYIQAPGKERELVAAISSAGSTYYADSVKGRFTISRDNAKNTVYLQMNSLKPEDTAVYYCAAAIWYIKLYFVRRTEHGYWGQGTQVTVSS | low polyreactivity |
| QVQLVESGGGLVQAGGSLRLSCAASGSIFRYNTMGWYRQAPGKERELVASIRIGGSTFYADSVKGRFTISRDNAKNTVYLQMNSLKPEDTAVYYCAVRPYRSAGGSVTRGAYYYWGQGTQVTVSS | high polyreactivity |
| QVQLVESGGGLVQAGGSLRLSCAASGLIFYDNMGWYRQAPGKERELVAAISSSGGSTSYADSVKGRFTISRDNAKNTVYLQMNSLKPEDTAVYYCAAQYPAYYTNSYWGQGTQVTVSS | low polyreactivity |
| QVQLVESGGGLVQAGGSLRLSCAASGFTFNFYAMGWYRQAPGKERELVASITSSGARTYYADSVKGRFTISRDNAKNSVYLQMNSLKPEDTAVYYCAARVYRYSASRAYDYWGQGTQVTVSS | high polyreactivity |
| QVQLVESGGGLVQAGGSLRLSCAASGFIFQANAMGWYRQAPGKETELDAAIDDGDTTYADSVKGRFTISRDNAKNTVYLQMNSLKPEDTAGYYCATRRNRSYDYWGQGTQVTVSS | low polyreactivity |
| QVQLVESGGGLVQAGGSLRLSCAASGSTFVRNAMGWYRQAPGKERELVAGITFGGGSTYYADSVKGRFTISRDIAKNTVYLQMNSLKPEDTAVYYCAADLSYRGATRGDYYWGQGTQVTVSS | low polyreactivity |
| QVQLVESGGGLVQAGGSLRLSCAASGSIFGRYAMGWYRQAPGKERELVAAISWRGGSTYYADSVKGRFTISRDNAKNTVYLQMNRLKPEDTAVYYCAKSGTFYYPRYDYWGQGTQVTVSS | high polyreactivity |
| QVQLVESGGGLVQAGGSLRLSCAASGSIFYENVMGWYRQAPGKERELVAGISRSGGRTYYADSVKGRFTISRDNAKNTVYLQMNSLIPEDTAVYYCNAARVYLSEWGQGTQVTVSS | high polyreactivity |
| QVQLVESGGGLVQAGGSLRLSCAASGFTSLVNAMGWYRQAPGKERELVAAITGGGSTNYADSVKGRFTISRDNAKNTVYLQMNSLKPEDTAVYYCNAVGYYGYPRIPQFYAFAFYYWGQGTQVTVSS | low polyreactivity |
| QVQIVESGGGLVQAGGSLRLSWASSGRIFYSNAMGRYRQAPGKERELVAAISYSGDSTYYADSVQGRFTISRDNAKNTGYFQMNSLKPEVTAVYYCAAETYVGEDYWGQGTQETVSS | high polyreactivity |
| QVQLVESGGGLVQAGGSLRLSCSASGLIFGNYAMGWYRQAPGKERELVAAITSTGITYYADSVKGRFTISRDNAKNTVYLQMNSLKPEDTAVYYCAAASRFHPDRGGYWGQGTQVTVSS | low polyreactivity |
| QVQLVESGGGLVQAGGSLRLSCAASGSTFTSYAIGWYRQAPGKERELVAAIRYSGGRTYYADSVKGRFTISRDNAKNTVYFQMNSLKPEDTAVYYCAARSKVYKVGYNYWGQGTQVTVSS | high polyreactivity |

| Sequence | polyreactivity (PSR sort gate) |
| --- | --- |
| QVQLVESGGGLVQAGGSLRLSCAASGSSLGLNAMGWYRQAPGKERELVAGISWRGGSTYYADSVKGRFTISRDNAKNTVYLQMNSLKPEDTAVYYCNAVRFYGRWRGYDYWGQGTQVTVSS | high polyreactivity |
| QVQLVESGGGLVQAGGSLRLSCAASGIIFGGYAMGWYRQAPGKERELVASITYDGGSTSYEDSVKGRFTISRDNAKNTVYLQMNSLKPEDTAVYYCNAELFSVNGYDYWGQGTQVTVSS | low polyreactivity |
| QVQLVESGGGLVQAGGSLRLSCAASGSIFSFYAMGWYRQAPGKERELVAAISWSGGSTYYADSVKGRFTISRDNAKNTVYLQMNSLKPEDTAVYYCAADYYYGTYDYWGQGTQVTVST | low polyreactivity |
| QVQLEESGGGLVQAGGSLRLSCAASGIIFGTNAMGWYRQAPGKERELVATISWRGGSTYYADSVKGRFTISRDNAKNTVYLQMTSLKPEDTAVYYCAAGASGQRAYRRYYWGQGTQVTVSS | high polyreactivity |
| QVQLVDSGGGLVHAGGSLRLSCAASGSIFGANTMGWYRPAPGKERELVAGITSRARTYYADSVKGRFTISRDNANNNVYLQMNSLKPEDTAVYYCAAKYAWRRYGYWGQGTQVTVSS | high polyreactivity |
| QVQLVESGGGLVQAGGSLRLSCAASGIIFYHNAMGWYRQAPGKERELVASITEIGGSTYYADSVKGRFTISRDNAKNTVYILMNSLKPEDTAVYYCAAGTLTSFSRYDYWGQGTQVTVSS | low polyreactivity |
| QVQLVESGGGIVQAGGSLRLSGAASGFTLTSYAMGWYRQPHGNERELVAGISRGGITYYADSVKGRFTISSDNAKNTVYLQMNSLKPEDTAVYYCATEASFYDPDMYPYGYDYWGQGTQVTVSS | high polyreactivity |
| QVQLVESGGGLVQAGGSLRLSCAASGSTFWLYAMGWYRQAPGKERELVAAIRSGDRTNYADSVKGRFTISRDNAKNTVYLQMNSLKPEDTAVYYCAAVAYLNWTPHYYWGQGTQVTVSS | low polyreactivity |
| QVQLVESGGGLVQAGGSLRLSCAASGSILLYYTMGWYRQAPGKERELVASITSGGRTYYADSVKGRFTISRDNAKNTVYLQMNSLKPEDTAVYFCAADVWKLYDYWGQGTQVTVSS | low polyreactivity |
| QVHLVESGGGKVQAGGSLRLSCAASGGTFYQYAMGWYRQAPGKESELVAAITRSGGRTYYADSVKGRFTISRDNAKNTVYFQMNSLKPEDTAVYYCAAEDVGPPDFYYWGQGTQVNVSS | high polyreactivity |
| QVQLVESGGGLVHAGGSLRLSCAASGITFEGNAMGWNRQAPGTERELVAAIRSSGTSTYYADSVKGRFTFSRDNEKKTVYLQMNSLKPEDTAVYYCNRARSSSRYDYWGEGTQVTVSS | low polyreactivity |
| QVQLVESGGGIVQAGGSLRLTCAASGFTFFYNAMGWYRQAPGKERELVAAITTNGGSTYYADSVKGRFTISRDNANNTVYLQMNSLKTEDTAVYYFAAEYGITEYDYWGQGTQVTVSS | low polyreactivity |
| QVQLVESGGGLVQAGGSLRLSCAASGLIIRNYAMGWYRPAPGKERELVAAISYNGGSTYYADSVKGRFTISRDNAKNTVYLQMNSLKPEDTAVYYCAAYYGVGYRRYYYWGQGTQVTVSS | high polyreactivity |
| QVLLVESGGGLVQAGGSLRVSCAASGRTFGGYGMGWYRQAPGKDRELVASISFSGGAGTYYADSVKGRFTISRDNATTPVYLQMNSLKPEDTAVYYCAKRYVTPTYRRYSWGQGTQETVSS | high polyreactivity |
| QVQLVESGGGLVQAGGSLRLSCAASGSIFGWYAMGWYRQAPGKERELVAAAIDYRDDSTYYADSVKGRFTISRDIAKNTVYLQMNSLKPEDTAVYYCAAEKDGDWRGYDYWGQGTQVTVSS | low polyreactivity |
| QVQLVESGGGLVQAGGSLRLSCAASGYTFNWYAMGWYRQAPGKERELVAAISWRSGRTYYADSVKGRFTISRDNAKNTVYLQMNSLKPEDTAVYYCAVTTTSGAPGGSYYYWGQGTQVTVSS | high polyreactivity |
| QVQLVESGGGLVQAGGSHRLSCAASGSTFTKNAMGWYRQAPGKERELVATISSGGYTNYADSVKGRFTISRDNAKNSVYLQMNSLKPEDTAVYYCNAVYRYRTRREYGYWGQGTQVTVSS | high polyreactivity |
| QVQLVESGGGLVQAGGSLRLSCAASGSTFAGYAMGWYIQAPGKERELVASIRSGGSTNYADSVKGRFSISRDNAKNTVYLQMNSLKPEDTAVYYCAARPDQKRYDYWGQGTQVTVSS | low polyreactivity |
| QVQLVESGGGLVQAGGSLRLSCAASGSTFWSYTMGWYRPAPGKERELVARIRTTGGSTYADSVKGRFTISRDNAKNTVYLQMNSLKPEDTAVYDCAKEGWLRYYPWYGGDYWGQGTLVTVSS | high polyreactivity |
| QDQLVESGGGLVQAGGSLRLSCAASGGIIVSYAMGWYRQAPGKEMQLVAAITSGGGTSYSDSVKGRFTISRDNAKNTVYLQMNSLKPEDTAVYYCNADGYLAERFVIRLDEYRHYDYWGQGTQVTVSS | low polyreactivity |
